Laboratory results from patent US7153676B1, “Transacylases of the paclitaxel biosynthetic pathway” (priority 1999, dated 2006).
Several values for one entry are separate records, joined by “and”; a condition that tells them apart may be missing. Equal entries are not always repeated.

Assays:
[1] = target: T1, taxadienol acetyl transacylase (TAX1) (Taxus cuspidata, UniProt Q9M6F0); assay: recombinant TAX1 expressed in E. coli JM109, taxadienol acetyl transacylase assay; type: biochemical; details: cell-free extract, radiochemical analysis
T1 construct: Full-length insert fragments of the relevant plasmids are excised and subcloned in-frame into the expression vector pCWori+; made in house; host or cells: E. coli JM109 (pCWori+)
T1 sequence (Q9M6F0 1-439): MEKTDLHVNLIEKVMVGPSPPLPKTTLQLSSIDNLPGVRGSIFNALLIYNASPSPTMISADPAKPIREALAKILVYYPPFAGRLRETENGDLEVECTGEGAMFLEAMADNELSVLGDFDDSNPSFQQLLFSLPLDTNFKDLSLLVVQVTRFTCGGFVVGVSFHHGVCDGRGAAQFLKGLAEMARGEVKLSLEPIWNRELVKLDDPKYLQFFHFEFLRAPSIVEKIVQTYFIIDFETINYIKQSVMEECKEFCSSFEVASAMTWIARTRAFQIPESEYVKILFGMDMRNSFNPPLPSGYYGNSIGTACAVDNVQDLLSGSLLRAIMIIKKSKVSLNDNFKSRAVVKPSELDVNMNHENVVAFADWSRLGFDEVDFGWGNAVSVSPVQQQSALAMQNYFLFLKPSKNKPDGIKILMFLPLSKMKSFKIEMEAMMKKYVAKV
Procedure: To determine the identity of the putative taxadienol acetyl transacylase, TAX1 (SEQ ID NO: 28), TAX2 (SEQ ID NO: 26), and TAX6 (SEQ ID NO: 45) were subcloned in-frame into the expression vector pCWori+ (Barnes, Methods Enzymol. 272:3–14, 1996) and expressed in E. coli JM109 cells. The transformed bacteria were cultured and induced with isopropyl β-D-thiogalactoside (IPTG), and cell-free extracts were prepared and evaluated for taxadienol acetyl transacylase activity using the previously developed assay procedures (Walker et al., Arch. Biochem. Biophys. 364:273–279, 1999). Clone TAX1 (corresponding directly to Probe 1) expressed high levels of taxadienol acetyl transacylase activity (20% conversion of substrate to product), as determined by radiochemical analysis; the product of this recombinant enzyme was confirmed as taxadienyl-5α-yl acetate by gas chromatography-mass spectrometry (GC-MS) (FIGS. 5A–5G). […] Neither of the recombinant proteins expressed from TAX1 (SEQ ID NO: 28) or TAX2 (SEQ ID NO: 26) was capable of acetylating the advanced paclitaxel precursor 10-deacetyl baccatin III to baccatin III. […]

[2] = target: T2, 10-deacetylbaccatin III-10-O-acetyl transferase (TAX6) (Taxus cuspidata, UniProt Q9M6E2); type: biochemical
T2 construct: to amplify the putative full-length acetyl transferase gene and incorporate NdeI and XbaI restriction sites; made in house; host or cells: E. coli JM109 (pCWori+)
T2 sequence (Q9M6E2 1-440): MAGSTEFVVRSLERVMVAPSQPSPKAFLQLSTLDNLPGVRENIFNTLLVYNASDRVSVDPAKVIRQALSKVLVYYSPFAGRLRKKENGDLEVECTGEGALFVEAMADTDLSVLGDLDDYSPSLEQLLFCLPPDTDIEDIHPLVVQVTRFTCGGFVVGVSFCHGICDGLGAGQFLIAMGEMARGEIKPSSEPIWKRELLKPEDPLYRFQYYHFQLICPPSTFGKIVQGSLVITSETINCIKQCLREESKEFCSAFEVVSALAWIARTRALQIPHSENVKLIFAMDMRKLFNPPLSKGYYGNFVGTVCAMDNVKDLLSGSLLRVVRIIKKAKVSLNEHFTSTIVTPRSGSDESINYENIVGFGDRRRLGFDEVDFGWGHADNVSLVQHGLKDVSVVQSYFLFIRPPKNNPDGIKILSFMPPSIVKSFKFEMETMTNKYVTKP
Procedure: For the enzyme preparation, E. coli cells transformed with the pCWori+ vector harboring the putative DBAT gene were grown overnight at 37° C. in 5 mL Luria-Bertani medium supplemented with ampicillin, and 1 mL of this inoculum was added to and grown in 100 mL Terrific Broth culture medium (6 g bacto-tryptone, Difco Laboratories, Spark, Md., 12 g yeast extract, EM Science, Cherryhill, N.J., and 2 mL gycerol in 500 mL water) supplemented with 1 mM IPTG, 1 mM thiamine HCl and 50 μg ampicillin/mL. After 24 hours, the bacteria were harvested by centrifugation, resuspended in 20 mL of assay buffer (25 mM Mopso, pH 7.4) and then disrupted by sonication at 0–4° C. The resulting homogenate was centrifuged at 15,000 g to remove debris, and a 1 mL aliquot of the supernatant was incubated with 10-deacetylbaccatin III (400 μM) and [2-^3H]acetyl coenzyme A (0.45μCi, 400 μM) for 1 hour at 31° C. The reaction mixture was extracted with ether and the solvent concentrated in vacuo. The crude product (pooled from five such assays) was purified by silica gel thin-layer chromatography (TLC; 70:30 ethyl acetate:hexane).
The activity of TAX6 (SEQ ID NO: 45) was assayed under standard conditions described in Walker et al., Arch. Biochem. Biophys.

B1: TAX1: full-length clone, SEQ ID NO: 27/28; encodes Taxus taxadienol acetyl transacylase (protein)
chain: MEKTDLHVNLIEKVMVGPSPPLPKTTLQLSSIDNLPGVRGSIFNALLIYNASPSPTMISADPAKPIREALAKILVYYPPFAGRLRETENGDLEVECTGEGAMFLEAMADNELSVLGDFDDSNPSFQQLLFSLPLDTNFKDLSLLVVQVTRFTCGGFVVGVSFHHGVCDGRGAAQFLKGLAEMARGEVKLSLEPIWNRELVKLDDPKYLQFFHFEFLRAPSIVEKIVQTYFIIDFETINYIKQSVMEECKEFCSSFEVASAMTWIARTRAFQIPESEYVKILFGMDMRNSFNPPLPSGYYGNSIGTACAVDNVQDLLSGSLLRAIMIIKKSKVSLNDNFKSRAVVKPSELDVNMNHENVVAFADWSRLGFDEVDFGWGNAVSVSPVQQQSALAMQNYFLFLKPSKNKPDGIKILMFLPLSKMKSFKIEMEAMMKKYVAKV
[1]
  taxadienol acetyl transacylase activity (conversion of substrate to product): 20%

B2: TAX6: full-length clone, SEQ ID NO: 44/45; 10-deacetylbaccatin III-10-O-acetyl transferase (protein, listed as Taxus cuspidata)
chain: MAGSTEFVVRSLERVMVAPSQPSPKAFLQLSTLDNLPGVRENIFNTLLVYNASDRVSVDPAKVIRQALSKVLVYYSPFAGRLRKKENGDLEVECTGEGALFVEAMADTDLSVLGDLDDYSPSLEQLLFCLPPDTDIEDIHPLVVQVTRFTCGGFVVGVSFCHGICDGLGAGQFLIAMGEMARGEIKPSSEPIWKRELLKPEDPLYRFQYYHFQLICPPSTFGKIVQGSLVITSETINCIKQCLREESKEFCSAFEVVSALAWIARTRALQIPHSENVKLIFAMDMRKLFNPPLSKGYYGNFVGTVCAMDNVKDLLSGSLLRVVRIIKKAKVSLNEHFTSTIVTPRSGSDESINYENIVGFGDRRRLGFDEVDFGWGHADNVSLVQHGLKDVSVVQSYFLFIRPPKNNPDGIKILSFMPPSIVKSFKFEMETMTNKYVTKP
[2]
  optimum pH: 7.5
  pH at half-maximal velocities: 6.4 and 7.8
